Measured values taken from patent US20220153834A1 (published 2022).

Tests used:
[1] = biological target: T1, Recombinant human TSG-6 (R&D Biosystems, catalog #2104-TS) (human, UniProt P98066 18-277); assay: inhibition of HA binding to TSG-6; HA binding
[2] = biological target: T1, Recombinant human TSG-6 (R&D …); assay: inhibition of HC-HA transesterase activity; HC-HA transesterase

T1 sequence (P98066 18-277): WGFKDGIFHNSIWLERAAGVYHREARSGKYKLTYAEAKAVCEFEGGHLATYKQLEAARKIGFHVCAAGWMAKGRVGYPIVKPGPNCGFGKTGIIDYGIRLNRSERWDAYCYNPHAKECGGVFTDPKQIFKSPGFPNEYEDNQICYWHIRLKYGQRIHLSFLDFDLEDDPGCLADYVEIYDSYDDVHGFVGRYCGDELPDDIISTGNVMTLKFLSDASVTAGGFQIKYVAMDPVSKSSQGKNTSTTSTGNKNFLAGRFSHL

IC50 [1]	IC50 [2]	Binder
> 667 nM	8 nM	5A5 (antibody, V domains shown) VH: QVQLQQSGAELAKPGASVRLSCQASGYTFTTYWMHWVKQRPRQGLEWIGYIIPSSGYSKCHQKFKDKATLTADKSSNTASMQLSSLTYEDSAVYYCARSTSGYPYYFDYWGQGTTLTVSS VL: ENVLTQSPAIMSASPGEKVTMTCSATSSVSYMHWYQQKSSTSPKLWIYDTSKLASGVPGRFSGSGSGNSYSLTISSMEAEDVATYYCFQGSWYPLTFGAGTKLELKR
> 667 nM	10 nM	3E1 (antibody, V domains shown) VH: QVQLQQSGAELAKPGASVRLSCQASGYTFTSYWMHWVKQRPRQGLEWIGYIIPSSGYTKCHQKFKDKATLTADKSSSTAYMQLSSLTYEDSAVYYCARSTSGYPYYFDSWGQGTTLTVSS VL: ENVLTQSPAIMSASPGERVTMTCSATSSVSFMHWYQQKSSTSPKLWIYDTSKLASGVPGRFSGSGSGNSYSLTISSMEAEDVATYYCFQGSWYPLTFGAGTKLELKR
> 2000 nM	19 nM	anti-TSG-6 antibody of SEQ ID NO: 1 and SEQ ID NO: 2 (first entry of Table 1, clone name not printed) (antibody, V domains shown) VH: QVRLQQSGAELAKPGASVKLSCKASGYTFTSYWMHWVKQRPGQGLEWIGYIIPSSGYTKNKQNFKDKATLTADKSSSTAYMQLSNLTYEDSAVYSCARSDGSYPYYFDYWGQGTTLTVSS VL: ENVLTQSPAIMSASPGEKVTMTCSASSSVSYMHWYQQKSSTSPKLWIYDTSKLASGVPGRFSGSGSGNSYSLTISSMEAEDVATYYCFQGSGYPLTFGSGTKLEIKR
10 nM	12 nM	3C6 (antibody, V domains shown) VH: EVQLQQSGPELVKPGASVKIPCKASGYTFTDYNMDWVKQSHGESLEWIGDIYPNNGGTIYNQKFKDKATLTVDKSSSTAYMELRSLTSEDNAVYYCARKTGTGFDYWGQGTTLTVSS VL: QIVLSQSPAILSASPGEKVTMTCRARSSVIYMHWYQQKPGSSPKPWIYATFNLASGVPARFSGSGSGTSYSLTISRVEAEDAATYYCQQWSSNPPTFGSGTKLEIKR
> 667 nM	68 nM	5B4 (antibody, V domains shown) VH: QVQLQQPGAELVKPGASVKLSCKASDYTFTNYWMHWVKQRPGRGLEWIGRIDPSSGGAKYNEKFKSKATLTVDKPSSTAYMEFSSLTSEDSAVYYCVRSRYDYDGWFAYWGLGTLVTVSA VL: DIVMTQAAPSVPVTPGESVSISCRSSKSLLHSNGNTYLYWFLQRPGQSPQLLIYRMSNLASGVPDRFSGSGSGTAFTLRISRVEAEDVGVYYCMQHLEYPFTFGGGTKLEIKR
32 nM	375 nM	1A9 (antibody, V domains shown) VH: EVQLQQSGPELVKPGASVKISCKASGYTFTDYYMNWVKQSHEKSLEWIGDINPNNGGTSYNQKFMGKATLTVDKSSRTAYMELRSLTSEDSTVYYCARWGIYDRFTYWGQGTLVSVSA VL: DIKMTQSPSSMYASLGERVTIACKASQDINSFLSWFQQKPGKSPKTLIYRANRLVDGVPSRFSGSGSGQDYSLTISSLEYEDMGIYYCLQYDEFPLTFGAGTKLELKR
47 nM	1100 nM	1D7 (antibody, V domains shown) VH: EVQLQQSGPELVKPGASVKISCKASGYTFTDYYMNWVKQSHGKSLEWIGDINPNNGGTTYNQKFKGKATLTVDKSSSTAYMELRSLTSEDSAVYYCARWGIFDRFTYWGQGTVVTVSA VL: DIKMTQSPSSMYASRGERVTITCKASQDINSFLSWFQQKPGKSPKTLIYRANRLVDGVPSRFSGSGSGQDYSLTISSLEYEDMGIYYCLQYDEFPLTFGAGTKLELKR
290 nM	> 3000 nM	3E4 (antibody, V domains shown) VH: QVQLQQPGAELVKPGASVKLSCKASGYTFTSQWMHWVKQRPGQGLEWIGMIHPNSGSTNNNEKFKSKATLTVDKSSSTAYMQLSSLTSEDSAVYYCTRWAMDYWGQGTSVTASS VL: DVVMTQTPLSLPVSLGDLASISCRSSQSLVHSNGNTYLHWYLQKPGQSPKLLIFKVSNRFSGVPDRFSGSGSGTDFTLKISRVEAEDLGVYFCSQSTHVPWTFGGGTKLEIKR
~1400 nM	4 nM	5D9 (antibody, V domains shown) VH: QVQLQQSGAELARPGASVKLSCKASDDTFINYGINWVKQRTGQGLEWIGETFPSNGNTFYNEKFKGKATLTADRSSSTTYMELRSLTSEDAAVYFCARHSNLPYFDHWGQGSTLTVSS VL: DIVMTQSPSSLSVSAGEKVTMSCKSSQSLLNSGNQKNYLAWYQQKPGQPPKLLIYGASTRESGVPERFTGSGSGTDFTLTISSVQAEDLAVYYCQNDHSYPFTFGGGTNLEIKR
> 667 nM	44 nM	4F1 (antibody, V domains shown) VH: EVKLVESGGGLVQPGGSLSLSCAASGFTFTDYYMSWVRQPPGKALEWLGFIRHKAKGYTAEYSASVKGRFTISRDNSQSILYLQMNALRAEDSATYYCARLYYYGSPHWYFDVWGTGTTVTVSS VL: QIVLTQSPAIMSASPGEKVTMTCSASSSVSYMHWYQQKSGTSPKRWIYDTSKLASGVPARFSGSGSGTSYSLTISSMEAEDAATYYCQQWSSNPPTFGSGTELEIKR
> 667 nM	140 nM	4E4 (antibody, V domains shown) VH: QVQLQQPGAELVKPGASVKLSCKASGYTFTSYWMHWVKQRPGQGLEWIGMIHPNSGSTNYNEKFKNKATLTVDKSSSTAYMQLSSLTSEDSAVYYCAPRMFDDYDDYWGQGTTLTVSS VL: QIVLTQSPAIMSASLGERVTMTCTASSSVSSSYLHWYQQKPGSSPKLWIYSTSNLASGVPVRFSGSGSGTSYSLTISRMEAEDAATYYCHHYHRSPYTFGGGTKLEIKR
> 667 nM	36 nM	ID12 (antibody, V domains shown) VH: QVQLQQSGPELVKPGASVKLSCKTSGYTFTSYDINWVKQRPGQGLEWIGWIYPSDGSTKFNEKFKGMATLTVDTSSSTAYMELHSLTSEDSTVYFCARGLWYYGGGVDYWGQGTSVTVSS VL: DAVMTQTPLSLPVSLGDQASISCRSTQSLEDSNGNTYLNWYLQKPGQSPQLLIYRVSNRFSGVLDRFSGSGSGTDFTLKISRVEAEDLGVYFCLQVTHVPYTFGGGTKLEIKR
